In the DeepSol protein solubility set:

Assay: soluble on expression in E. coli; label from the status in PepcDB or PDB records

Sequence | soluble on expression in E. coli
MSLRHLQSTIHPELDHLDDKIIFQRNAARAIVLDGEDVLLLYTERYHDYTLPGGGIDEGEDVIAGLVRELEEETGAQNIHSIKPFGIFEEFRPWYKDDADVMHMISYCYTCKIDRELGETAYEDYEVKNGMRPVWMNVHEAIAHNEKTMAESPKKGMSIERETFLLHLIAKELLEGHHHHHH | soluble
MSLKTIITNLKVYILKGPKEKRPHWVSNFIVPNANELLVILETNQGVEGFGLATSYTDMSPIVHVIESGISEKILGCNPLEPEMLYQSLFNLTASRLAYEKGWSREALIRVSAAVDIACWDIIGKISGLPLYQLFGGFRNKVPCYVTCAYYREGKDHAELKDEIQMLVDQGHQGFKAKVGGLSLAEDLERMELVREIIGPERDLMIDVNRAWDLKTAIEGARLLEPLKPTWLEEPVRWMDDRRELKILAQHTSIPLSGGESESTSYGCRTMIDEKAIQILQFDCTMFGGFTEGRKMTALCDLNHVDVAPHHDCFIHAPLVASSPAGRIVESFTDPERDPLQAELFENPPNIEKGWLTLNEAQGLGLTLSENALAKFGTQIIEGHHHHHH | soluble
MGHHHHHHSHEKMNGSHRDQGSSALSGVGGIRLPNGKLKCDICGIICIGPNVLMVHKRSHTGERPFQCNQCGASFTQKGNLLRHIKLHSGEKPFKCHLCNYACRRRDALTGHLRTHSVGKPHKCGYCGRSYKQRSSLEEHKERCHNYLESMGLPGTLYPVIKEETNHSEMAEDLCKIGSERSLVLDRLASNVAKRKSSMP | soluble
MGHHHHHHSHMCVARVYHGWLFEGLGRDKAEELLQLPDTKVGSFMIRESETKKGFYSLSVRHRQVKHYRIFRLPNNWYYISPRLTFQCLEDLVNHYSEVADGLCCVLTTPCLTQSTAAPAVRASSSPVTLRQKTVDWRRVSRLQEDPEGTENPLGVDESLFSYGLRESIASYLSLTSEDNTSFDRKKKSISLMYGGSKRKSSFFSSPPYFED | soluble
MLRPLSKTDCPMLQEINAKALGYLVSLDLLERQYERLIEDCHHYFLAYADKDTNQLLGYVHAERYETLYASDGLNLLGLAVLPAYQRRGIGSALLRALESQARQEGIAFIRLNSASHRKEAHAFYRNLDYADDKTQLRFIKNLQGDDNDF | not soluble
MGSDKIHHHHHHMELVKFGKLKEQSYTMKESLRALKTNIQFCGDDIRTLLVTSSVPNEGKSTVALDLARSLTESGNRVLFIDTDMRKSVLAGRLRATAASGGEICGLSHYLSGQRRLEEVMYGTEIPGLFMIFAGPSVPNPTEILEKKYFQELLNFGKEHFNYIIIDCAPIGAAIDAAVVAKYCDGAIIVIGQGMASARMIQSVKKQLEASGVRILGAVLNKVNNKKNSHVSGYYGNYYGSYYGRSDKA | not soluble
TKDFNWNSTFNIAYNSSDVKYLGIDGTGEKIKRLTLDGANSRVGSVSVQNILGHPYGELVGYEYKRTSDGQVIFENGLPVHSDEVQVLGNGVYKVTGGWRNEFTYKNITLSFLIDFKAGAKMFSGTNLSLYSNGLHKNTLQGRGADGKGTMVGNGVMSDGKGGYVKNTVAVSAQDYWQAITSQNIAEEFVYNASFIKLRELSVGYTLPQAWLNKQTLIKGVTLSLVGRNLWTILKHTDNIDPESAYNNGNAQGLELNGYPATRNVGFNVNVKF | not soluble
MDSKSHGWLIGANGTILETHDGGEHWEPRTFDFLRMDEEINYRFESISCYGNEGWIVGKPPILLHTQNGGKDWERIPLSSKLPGEPVLITALGPNRAELATTAGAIYTTDNGGKNWKALVKETIDATLNRTTSSGVTGASYYTGTVISITRDCNGYYLAISSRGNFYVTWHPGQEYWTPHPRDSSRRIQSMGFVQNDIHKGLWMANNGGFLGFSPPNPSLDTVSSIPFQRVDIRTGGYGILDVAFHQQKRNEVWASVGSGILYRSFDGGKHWEKDPWLDHLGSVLYRIKFVENSGFILGAKGTLLRYNG | soluble
MKKVAIIGAGIVGATAAYYLSKEKDIAVTVFDDGFGQATKAAAGIICPWFSKRRHKAWYRLARLGADFYQTLLSDLKRDACKVDFYEQSGAFLLKNKAESLDELFEIGQKRKSQSPLIGHLEIQKRADLTGLLADLVGFDRCIYASGAARVEGASLTEALLNASHAKMVNKKVGLQVLSDGNYRVNGKKYTAVLLACGAWLPQILEPLGYKIDIRPQKGQLRDYFFNSEDTEKFPVIMPEGEVDIIPFAHGKVSVGASHENDHGFDLQIDNSVLDKMEKEAQTYFPKLKEATSKNERVGTRAYTRDFAPFFGRVTGLANVYAASGLGSSGLTTGPLIGNQLVKMLLDKELDIQASDYSPDKYIVKNSLEHHHHHH | not soluble
MSLSIIVASTMSDSGKSFITTGLVRILNAKPLKIQNMSLNSISTWDGGEIAFIQAYQAWGAGLRPERYMNPILLKIMGKGLEVIFMGSSLGIMSGNEYYNLATEKLWKKVSQFLSNDVVIEAAGGIGEPNFIDKDITAIKVMKEKRIPAILVLDIDRGGAFASAYGTYMMLPQSVRENLKGFIINKFRGDEKFLNDAIKWLEEKTGMRYLGYLPFFSEPPIMPEDSMNVYNFGDGNVEVAIIAYPYMSNFNEFYALVKSNARVSFVRKPKETAKADLVILPGSRNTLESLKWLVENGFVEQLRQRSMNILGICGGFQILGKKIVDPYGIEAGYPTEYEGLGIFDINVHYSKDKVVSMTTGISEYGEMNGYEIRRGVIKYMGEKPLLKITLRNGEKVSVEDGAKKDNIIGISVHGTLFSDGMKKLLKEFNINIHSQSMEEEIKQQAIRVEQFLRKYLHIDEIVEIYKEGHHHHHH | not soluble
RSFYNLGMDYKYRFHRFSIQGEAALGISGMAFMNQVLYSPLQDIRLMLVHRYYSHDYWAMFAHSFSEGSSVQNENGWYLAASVNPFNRWTFFVSADLFSFPWWRYRISKASKGVDLLFQADYVPSKTVDMYVNYRYKQKERDVTGTQGKVILPTYHHRLRYRLNYLPCSSLSLRTTVDYNHFHSSGKTAGQGYQLTQTAGWKLPWLPLTTELQGSYFHTDDYDSRIYIYEKGLLYSFYTPSFQGEGIRLAIHFRYDMNKHWTAIAKLGQTTYFDRDEIGSGNDLIRGNKKTDVQMQLRLKF | not soluble
